The labels stand for the following.
T1: human TIM-3 on CHOK1 stable cell line (CHOK1-hTIM-3) (human, UniProt Q8TDQ0 22-301)
T1 sequence: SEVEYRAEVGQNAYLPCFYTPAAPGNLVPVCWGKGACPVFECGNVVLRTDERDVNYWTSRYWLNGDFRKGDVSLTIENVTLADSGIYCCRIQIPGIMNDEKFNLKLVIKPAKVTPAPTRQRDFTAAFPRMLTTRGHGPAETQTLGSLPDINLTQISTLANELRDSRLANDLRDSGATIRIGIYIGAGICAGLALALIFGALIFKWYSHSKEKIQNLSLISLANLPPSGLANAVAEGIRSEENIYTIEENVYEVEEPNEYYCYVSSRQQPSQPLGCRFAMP

T2: monkey TIM-3 extracellular domain protein with hFc tag (cTIM-3-hFc) (monkey)
T2 construct: not shown: human IgG Fc fragment (hFc) of the pCpC vector
T2 chain: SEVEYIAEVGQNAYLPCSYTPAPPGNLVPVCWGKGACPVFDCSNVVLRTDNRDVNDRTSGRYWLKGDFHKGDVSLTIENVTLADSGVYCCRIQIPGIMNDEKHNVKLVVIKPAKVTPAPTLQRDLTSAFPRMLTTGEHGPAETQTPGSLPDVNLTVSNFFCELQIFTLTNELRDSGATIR

B1: 18D2H2 fully human TIM-3 antibody (human IgG4, kappa) (antibody, V domains shown)
VH: EVQLVESGGDLVQPGGSLRLSCAASGFTFSTYWMTWVRQAPGRGLEWVANIKQDGSAKYYVDSVKGRFTLSRDDAKNSLYLQMNSLRAEDTAVYYCARGSNWFDYWGQGTLVTVSS
VL: ETVMTQSPATLSVSPGERATLSCRANQNVYSNLAWYQQKPGQAPRLLIYDASTRATGFPARFSGSGSGTEFTLTISSLQSEDFAVYYCQQYNNWPLTFGGGTKVEIK
B2: 39E5H1 fully human TIM-3 antibody (human IgG4, kappa) (antibody, V domains shown)
VH: EVQLVESGGGLVQPGGSLRLSCAASGFTFSSYWMSWVRQAPGKGLEWVANIKRGGSERYYVDSVKGRFTISGDNAKNSVYLQMNSLRAEDTAVYYCARGSNWFDPWGQGTLVTVSS
VL: B1 VL with T10I, N26S, N28S, P40L, F58I, L96I, G100Q, K103R, V104L
B3: 34B6D8 fully human TIM-3 antibody (human IgG4, kappa) (antibody, V domains shown)
VH: B2 VH with S31T, S35T, G44R, R53Q, S56G, E57D, R58K, G72T, V79L
VL: EIVMTQSPATLSMSPGERATLSCRASQSVYDNLAWYQQKPGQAPRLLIYGASTRATGIPARFSGSGSGTEFTLTISSLQSEDFALYYCQQYTHWPITFGQGTRLEIK
B4: 7A4F10 fully human TIM-3 antibody (human IgG4, kappa) (antibody, V domains shown)
VH: EVQLLESGGGLVQPGGSLRLSCAASGFTFRTHLISWVRQAPGKGLEWVAAITGSGGSTYYADSVKGRFIISRDNSKNTLFLQMNSLRAEDTAVYYCAKDGGSGSYDDFWGQGTLVTVSS
VL: ETVLTQSPVTLSLSPGERATLSCRASQSVGSYLAWYQQKPGQAPRLLIYDASNRATGIPARFSGSGSGTDFTLTISSLEPEDFAVYYCQQRSNWPPTFGQGTKVEIK

Substitutions are numbered along the chain they refer to.

The first test deals with T1, human TIM-3 on CHOK1 stable cell line …. Nature of the test: FACS, CHOK1-hTIM-3 cells, 40 nM antibody. On the technique in general: In flow cytometry, cells or beads pass a laser one at a time.
In turn, B1 showed a Mean fluorescence intensity of 257.

Molecule B2 came in with a Mean fluorescence intensity of 264.

As to B3, the Mean fluorescence intensity stood at 221.

Take B4: the Mean fluorescence intensity worked out at 313.

A further test shares this target. Kind of test: FACS, CHOK1-hTIM-3 cells, 1.6 nM antibody.
Consider B1, for which the Mean fluorescence intensity was 232.

In the case of B2, the Mean fluorescence intensity is 191.

Molecule B3 registered a Mean fluorescence intensity of 212.

As to B4, the Mean fluorescence intensity is 282.

In the next test the target is T2, monkey TIM-3 extracellular domain …. Nature of the test: ELISA, coated monkey TIM-3 ECD protein, 6.6667 nM antibody.
Molecule B1 displayed an OD450 of 3.3.

For the molecule B2, the OD450 worked out at 3.35.

As to B3, the OD450 is 3.39.

For the molecule B4, the OD450 was 3.12.

Another test has the same target. Kind of test: ELISA, coated monkey TIM-3 ECD protein, 0.0667 nM antibody. A general note: An ELISA detects its analyte on a solid surface through an enzyme-linked reagent.
As for B1, the OD450 came out at 1.56.

For the molecule B2, the OD450 amounted to 1.37.

For B3, the OD450 was 1.71.

Molecule B4 yielded an OD450 of 0.68.

(Values after patent US20220033501A1 (SHANGHAI PHARMAEXPLORER, published 2022).)
